Key:
Assay in all cases: cross-linking; copper-phenanthroline (1 mM CuSO4/3 mM 1,10-phenanthroline) disulfide cross-linking of purified protein (1 mg/ml) in 20 mM HEPES pH 7.4, 150 mM NaCl, 1 mM TCEP, on ice 15 min; non-reducing SDS-PAGE; efficiency = dimer/(monomer + dimer)
[1] = molecular target: GB1-TM-CC1 monocysteine variant A230C (not stated (human or mouse cDNA cloned)) (UniProt Q13586)
[2] = molecular target: GB1-TM-CC1 monocysteine variant G226C (not stated (human or mouse cDNA cloned)) (UniProt Q13586)
[3] = molecular target: GB1-TM-CC1 monocysteine variant I222C (not stated (human or mouse cDNA cloned)) (UniProt Q13586)

GB1-TM-CC1 monocysteine variant A230C (from UniProt Q13586 209-310) (domain or fragment)
disulfide cross-linking efficiency [1]: > 70%

GB1-TM-CC1 monocysteine variant G226C (from UniProt Q13586 209-310) (domain or fragment)
disulfide cross-linking efficiency [2]: > 70%

GB1-TM-CC1 monocysteine variant I222C (from UniProt Q13586 209-310) (domain or fragment)
disulfide cross-linking efficiency [3]: > 70%
